From article PMC7144908
pKd: −log10 of the molar value.

Biological target: SV40 large T antigen (Tag) (Simian virus 40) (UniProt P03070)
Assay: DSF

SV40 large T antigen (Tag) (Simian virus 40), sequence (P03070 whole entry): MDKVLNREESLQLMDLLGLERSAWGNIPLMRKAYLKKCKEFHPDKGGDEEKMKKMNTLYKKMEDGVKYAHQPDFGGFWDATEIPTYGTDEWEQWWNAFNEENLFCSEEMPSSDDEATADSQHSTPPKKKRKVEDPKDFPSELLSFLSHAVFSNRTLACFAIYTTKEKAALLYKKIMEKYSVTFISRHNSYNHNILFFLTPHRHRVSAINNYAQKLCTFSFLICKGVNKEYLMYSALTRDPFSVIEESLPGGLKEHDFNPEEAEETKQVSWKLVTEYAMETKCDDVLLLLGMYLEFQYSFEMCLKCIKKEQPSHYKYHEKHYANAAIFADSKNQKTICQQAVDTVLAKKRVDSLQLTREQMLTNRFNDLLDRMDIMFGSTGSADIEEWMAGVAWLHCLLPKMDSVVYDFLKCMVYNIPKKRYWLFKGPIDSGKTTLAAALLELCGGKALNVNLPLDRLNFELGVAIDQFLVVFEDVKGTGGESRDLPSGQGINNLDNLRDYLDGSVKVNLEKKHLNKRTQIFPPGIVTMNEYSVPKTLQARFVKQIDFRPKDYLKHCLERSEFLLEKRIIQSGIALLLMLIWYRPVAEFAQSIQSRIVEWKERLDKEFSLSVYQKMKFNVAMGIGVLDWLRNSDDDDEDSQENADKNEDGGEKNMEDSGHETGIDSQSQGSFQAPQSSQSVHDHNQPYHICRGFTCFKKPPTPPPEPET

Poly(dT)
pKd: 7.40
